Columns and labels:
[1] = target: cellular RBX1 (Fig. S7) (human) (UniProt P62877)
[2] = target: CFP-RBX1-CUL1^CTD (human) (UniProt P62877); experiment: FRET or BRET
CFP-RBX1-CUL1^CTD~NEDD8 = CFP-RBX1-CUL1^CTD~NEDD8 (UniProt P62877); experiment: FRET or BRET
CFP-RBX1^RING (human) = CFP-RBX1^RING (human) (UniProt P62877); experiment: FRET or BRET
CFP-RBX1^RING (human), sequence (P62877 whole entry): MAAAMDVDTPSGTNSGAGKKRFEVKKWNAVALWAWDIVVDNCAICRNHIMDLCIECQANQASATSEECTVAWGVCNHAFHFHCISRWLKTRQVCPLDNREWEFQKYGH

GLMN-YFP, sequence (Q92990 whole entry): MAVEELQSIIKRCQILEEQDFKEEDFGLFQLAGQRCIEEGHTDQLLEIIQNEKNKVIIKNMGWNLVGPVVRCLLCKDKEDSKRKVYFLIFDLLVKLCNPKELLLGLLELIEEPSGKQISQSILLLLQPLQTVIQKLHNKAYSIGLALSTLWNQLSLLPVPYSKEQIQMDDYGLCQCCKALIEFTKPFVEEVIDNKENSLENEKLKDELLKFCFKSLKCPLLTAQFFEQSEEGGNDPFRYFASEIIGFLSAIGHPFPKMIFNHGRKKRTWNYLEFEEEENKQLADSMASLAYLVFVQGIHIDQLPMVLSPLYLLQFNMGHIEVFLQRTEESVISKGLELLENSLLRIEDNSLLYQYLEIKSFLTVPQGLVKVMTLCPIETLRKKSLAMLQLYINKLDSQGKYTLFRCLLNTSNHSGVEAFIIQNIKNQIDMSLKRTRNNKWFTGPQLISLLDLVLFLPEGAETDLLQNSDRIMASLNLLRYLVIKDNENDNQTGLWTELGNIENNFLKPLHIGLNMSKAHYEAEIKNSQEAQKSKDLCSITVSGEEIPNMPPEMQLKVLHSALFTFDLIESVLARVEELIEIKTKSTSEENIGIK
GLMN in cells (Fig. S7), sequence (Q92990 whole entry): as above
cellular RBX1 (Fig. S7) (human), sequence (P62877 whole entry): as the sequence (P62877 whole entry) above
CFP-RBX1-CUL1^CTD~NEDD8, sequence (P62877 whole entry, chain 1 of 3): as the sequence (P62877 whole entry) above
CFP-RBX1-CUL1^CTD~NEDD8, sequence (Q13616 411-776, chain 2 of 3, further chain): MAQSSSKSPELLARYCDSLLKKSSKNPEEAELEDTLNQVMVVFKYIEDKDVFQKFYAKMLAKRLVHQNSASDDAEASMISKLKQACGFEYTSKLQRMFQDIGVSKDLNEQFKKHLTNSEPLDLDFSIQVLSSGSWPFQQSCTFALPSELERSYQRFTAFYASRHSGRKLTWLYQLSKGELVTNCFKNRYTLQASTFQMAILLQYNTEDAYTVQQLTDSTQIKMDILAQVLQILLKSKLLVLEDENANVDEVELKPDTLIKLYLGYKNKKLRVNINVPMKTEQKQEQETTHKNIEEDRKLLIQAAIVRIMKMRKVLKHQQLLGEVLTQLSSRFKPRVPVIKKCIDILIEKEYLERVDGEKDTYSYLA
CFP-RBX1-CUL1^CTD~NEDD8, sequence (Q15843 1-76, chain 3 of 3, further chain): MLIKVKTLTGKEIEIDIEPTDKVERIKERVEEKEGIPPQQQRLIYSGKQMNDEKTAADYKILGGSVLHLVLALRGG
CFP-RBX1-CUL1^CTD (human), sequence (P62877 whole entry, chain 1 of 2): as the sequence (P62877 whole entry) above
CFP-RBX1-CUL1^CTD (human), sequence (Q13616 411-776, chain 2 of 2, further chain): as the sequence (Q13616 411-776, chain 2 of 3, further chain) above

Substance	percent of cellular RBX1 bound by GLMN [1]	Kd [2]	Kd (CFP-RBX1-CUL1^CTD~NEDD8)	Kd (CFP-RBX1^RING (human))
GLMN in cells (Fig. S7) (from UniProt Q92990 1-594) (natural protein)	7 percent			
GLMN-YFP (from UniProt Q92990 1-594) (natural protein)		36 nM	28 nM	45 nM
